According to patent publication JP2003510672A:
pKd: −log10 of the molar value.

Experiments:
[1] = target: ヒト組換え型CD4 (RepliGen, USA) (human) (UniProt P01730); test: SPR (BIACORE 2000, 25 C), KD calculated as kd/ka; mimetic immobilised, soluble CD4 injected
[2] = target: ヒト組換え型CD4 (RepliGen, USA) (human) (UniProt P01730); test: SPR (BIACORE 2000, 25 C), mimetic immobilised on B1 chip, soluble CD4 injected at 16-330 nM

pKd [1]: 8.49 | koff [2]: 0.000264 s⁻¹ | kon [2]: 82600 M⁻¹ s⁻¹
Substance: 疑似体 Mk3Tyr-long1SH (cyclic peptide mimetic of the ST40 paratope; MK3Tyr with the Ile between Tyr140 and Asn144 replaced by Lys extended with 3-mercaptopropionic acid)
